Measurements reported in the supplement of paper PMC10724198.
± gives the standard deviation of the averaged measurements.

System: Saccharomyces cerevisiae
Assay: protein stability index of tFT-peptide fusion (C-terminal peptide) (PSI (0-1 scale)); higher = more stable (slower turnover)
Details: temperature: 30 C
Description: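 MPS profiling in S. cerevisiae of the yeast C-terminome library: the last 12 aa of each annotated ORF are fused to the C-terminus of a sfGFP-mCherry timer, after a GGGS linker. Cells are FACS-sorted into 8 mCherry/sfGFP bins and deep-sequenced. PSI runs from 0 (unstable) to 1 (stable); wild type and das1Δ backgrounds, two technical replicates each.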

[1] = genetic background: das1 deletion

Sequence | protein stability index [1] | protein stability index (genetic background: wild type)
LIIRNLNAEKER [YFR056C C-terminal 12 aa] | 0.6974 ± 0.0041 | 0.686 ± 0.039
LITMIRFVNSQK [DCG1 C-terminal 12 aa] | 0.677 ± 0.044 | 0.673 ± 0.034
LKAVCPPEAGFD [VEL1 C-terminal 12 aa] | 0.7312 ± 0.0018 | 0.772 ± 0.019
LKIVEKIIASEQ [YLR419W C-terminal 12 aa] | 0.683 ± 0.013 | 0.711 ± 0.029
LKMDKLGNYILE [RIO2 C-terminal 12 aa] | 0.717 ± 0.027 | 0.65 ± 0.043
LKYCKRRHNTPS [GCR1 C-terminal 12 aa] | 0.747 ± 0.0077 | 0.736 ± 0.021
LLAKKKLKPNLL [YGR293C C-terminal 12 aa] | 0.714 ± 0.028 | 0.7 ± 0.04
LLASCIETTRNK [LOT6 C-terminal 12 aa] | 0.691 ± 0.008 | 0.667 ± 0.027
LLEDIRANYSLN [YLL056C C-terminal 12 aa] | 0.681 ± 0.012 | 0.692 ± 0.028
LLGFTTGKEVHL [SMF2 C-terminal 12 aa] | 0.6939 ± 0.0046 | 0.701 ± 0.014
LLLSAFLRNLVP [YAL016C-A C-terminal 12 aa] | 0.685 ± 0.026 | 0.375 ± 0.0073
LLRKLSMKRPFS [APL1 C-terminal 12 aa] | 0.683 ± 0.016 | 0.682 ± 0.047
LNIGGNLVTPLC [YSH1 C-terminal 12 aa] | 0.719 ± 0.011 | 0.671 ± 0.037
LNNKDTKSVRHA [BRR6 C-terminal 12 aa] | 0.667 ± 0.029 | 0.711 ± 0.026
LPFSVEPTTSRM [YFR036W-A C-terminal 12 aa] | 0.6999 ± 0.0065 | 0.687 ± 0.017
LPGINSIFKNIF [TOD6 C-terminal 12 aa] | 0.774 ± 0.016 | 0.722 ± 0.063
LPLKLTRKVHDR [RIF2 C-terminal 12 aa] | 0.705 ± 0.05 | 0.713 ± 0.012
LPSINTIFKDML [DOT6 C-terminal 12 aa] | 0.702 ± 0.03 | 0.731 ± 0.059
LQEPDRDNDDSG [NTC20 C-terminal 12 aa] | 0.701 ± 0.013 | 0.7 ± 0.017
LQLFVNLGCPLS [YDR455C C-terminal 12 aa] | 0.727 ± 0.028 | 0.683 ± 0.019
LQNNDVTIGFAK [MUD1 C-terminal 12 aa] | 0.715 ± 0.0077 | 0.655 ± 0.02

Sequence | protein stability index [1] | protein stability index (genetic background: wild type)
LQPDVPPSSGRS [KEX2 C-terminal 12 aa] | 0.695 ± 0.033 | 0.703 ± 0.011
LQPWEGRLYLLK [IMA5 C-terminal 12 aa] | 0.698 ± 0.048 | 0.693 ± 0.063
LRFEEMNSDLVQ [ROG1 C-terminal 12 aa] | 0.705 ± 0.0096 | 0.747 ± 0.12
LRRSFAIYTLGH [MCM2 C-terminal 12 aa] | 0.647 ± 0.027 | 0.6562 ± 0.0043
LRVEWSKPKVKE [TIF35 C-terminal 12 aa] | 0.699 ± 0.015 | 0.711 ± 0.044
LSDDEEEEEEEE [RIX1 C-terminal 12 aa] | 0.648 ± 0.048 | 0.645 ± 0.033
LSEEDLLDDESS [YPF1 C-terminal 12 aa] | 0.669 ± 0.042 | 0.698 ± 0.0078
LSGAPQVTKKQN [POM33 C-terminal 12 aa] | 0.691 ± 0.013 | 0.674 ± 0.016
LSHAQKEIYEFK [UTP25 C-terminal 12 aa] | 0.687 ± 0.011 | 0.691 ± 0.056
LSQFSNVRYLLQ [VPS70 C-terminal 12 aa] | 0.7367 ± 0.0022 | 0.545 ± 0.0054
LSQWVSQMPFPM [LRO1 C-terminal 12 aa] | 0.79828 ± 0.00044 | 0.8015 ± 0.0025
LTEMSAKISFED [AAD10 C-terminal 12 aa] | 0.717 ± 0.019 | 0.779 ± 0.011
LTHQSLLATARK [KIP3 C-terminal 12 aa] | 0.6931 ± 0.0014 | 0.6879 ± 0.00097
LTLIPILFGKLQ [YNL203C C-terminal 12 aa] | 0.6875 ± 0.0045 | 0.354 ± 0.0097
LTSIWKTILFFK [YEL076C C-terminal 12 aa] | 0.41 ± 0.014 | 0.468 ± 0.061
LTSYINVHLVYV [YNL285W C-terminal 12 aa] | 0.301 ± 0.016 | 0.325 ± 0.0042
LVAEATKKKRHT [DJP1 C-terminal 12 aa] | 0.7115 ± 0.0067 | 0.6936 ± 0.0052
LVKCASATIMLN [MIN3 C-terminal 12 aa] | 0.704 ± 0.021 | 0.483 ± 0.022
LVKPKNWKKFRE [KRE2 C-terminal 12 aa] | 0.686 ± 0.017 | 0.733 ± 0.022
LVSYFIKVQMKL [ECM3 C-terminal 12 aa] | 0.487 ± 0.0087 | 0.443 ± 0.025
LVYATELIGSGS [ICE2 C-terminal 12 aa] | 0.7058 ± 0.0022 | 0.7 ± 0.073

Sequence | protein stability index [1] | protein stability index (genetic background: wild type)
LYEHGIKKFDDL [JIP5 C-terminal 12 aa] | 0.674 ± 0.029 | 0.721 ± 0.039
LYTFIVKKVKRD [GID12 C-terminal 12 aa] | 0.671 ± 0.045 | 0.685 ± 0.024
MEALKEAREILG [MSH1 C-terminal 12 aa] | 0.7025 ± 0.0022 | 0.628 ± 0.019
MFLSIQPQEARP [KAP120 C-terminal 12 aa] | 0.72 ± 0.0086 | 0.713 ± 0.011
MFNASSDIFQRN [YML083C C-terminal 12 aa] | 0.703 ± 0.016 | 0.7014 ± 0.0067
MKEKLKHSRKYM [SHY1 C-terminal 12 aa] | 0.7121 ± 0.0039 | 0.6685 ± 0.0027
MKGYGFEVPSAN [COX17 C-terminal 12 aa] | 0.6984 ± 0.0041 | 0.663 ± 0.0067
MKLFEENKKEEE [PET111 C-terminal 12 aa] | 0.722 ± 0.014 | 0.684 ± 0.035
MLAKIHKLNNKA [RFC4 C-terminal 12 aa] | 0.7026 ± 0.0053 | 0.704 ± 0.066
MLKFLAVVFFLL [YGL218W C-terminal 12 aa] | 0.392 ± 0.018 | 0.217 ± 0.011
MLNQQQQQQQQS [NRD1 C-terminal 12 aa] | 0.702 ± 0.016 | 0.739 ± 0.017
MNNLFNPHSHDS [GTA1 C-terminal 12 aa] | 0.7104 ± 0.0014 | 0.722 ± 0.042
MQHRGWSSLMSL [YJR146W C-terminal 12 aa] | 0.7031 ± 0.0016 | 0.6548 ± 0.0047
MSSTKKVRFVML [RMD5 C-terminal 12 aa] | 0.696 ± 0.035 | 0.642 ± 0.035
MTSLDICALGIK [RVS161 C-terminal 12 aa] | 0.689 ± 0.012 | 0.675 ± 0.046
NADDPSYYHYLS [CUL3 C-terminal 12 aa] | 0.7059 ± 0.0024 | 0.68 ± 0.01
NASEIYVKRKTG [DDL1 C-terminal 12 aa] | 0.708 ± 0.041 | 0.204 ± 0.03
NASIFTVLSYCS [YEL020C-B C-terminal 12 aa] | 0.6702 ± 0.0016 | 0.668 ± 0.02
NDDNFDDAQEQQ [SEC2 C-terminal 12 aa] | 0.6977 ± 0.0015 | 0.7002 ± 0.0057
